Data: article PMC7450096, “Structural mechanism for replication origin binding and remodeling by a metazoan origin recognition complex and its co-loader Cdc6” (Nature Communications, 2020)
One block for each binder: values may come before it.

Tests used:
[1] = molecular target: T1, Drosophila Orc2, subunit of DmORC^Orc1ΔN (Drosophila, UniProt Q24168 1-618); assay: cryo-EM structure; DmORC^Orc1ΔN (2.5 μM), duplex DNA (3 μM; 60 bp AT-rich, 84 bp AT-rich, 60 bp poly(dA·dT) or 60 bp GC-rich) and DmCdc6ΔN (6.8 μM) assembled at 25 °C in 25 mM HEPES-KOH pH 7.6, 250 mM potassium acetate, 10 mM magnesium acetate, 1 mM DTT, 1 mM ATP; purified by gel filtration; conditions: both partners purified
T1 construct: Orc2, Drosophila; only Orc1 is named as truncated in DmORC^Orc1ΔN; also called DmOrc2; source: Hi5 insect cells, co-expressed with the other ORC subunits, purified as part of DmORC^Orc1ΔN
T1 sequence: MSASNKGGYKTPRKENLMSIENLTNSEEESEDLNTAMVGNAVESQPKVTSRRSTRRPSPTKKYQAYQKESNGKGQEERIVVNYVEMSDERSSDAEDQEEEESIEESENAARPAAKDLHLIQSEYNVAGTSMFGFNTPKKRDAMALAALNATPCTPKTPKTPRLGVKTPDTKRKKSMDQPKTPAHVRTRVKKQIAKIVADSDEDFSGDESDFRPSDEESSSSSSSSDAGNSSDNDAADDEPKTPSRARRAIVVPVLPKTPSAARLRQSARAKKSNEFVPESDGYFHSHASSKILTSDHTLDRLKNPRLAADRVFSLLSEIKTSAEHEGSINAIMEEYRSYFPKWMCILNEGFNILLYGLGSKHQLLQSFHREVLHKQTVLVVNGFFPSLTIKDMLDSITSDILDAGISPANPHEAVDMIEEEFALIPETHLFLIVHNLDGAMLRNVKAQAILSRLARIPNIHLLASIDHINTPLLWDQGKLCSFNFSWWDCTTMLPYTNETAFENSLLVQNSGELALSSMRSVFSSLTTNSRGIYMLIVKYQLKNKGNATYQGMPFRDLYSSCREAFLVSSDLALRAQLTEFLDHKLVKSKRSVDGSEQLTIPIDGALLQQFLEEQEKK

[2] = molecular target: T2, Drosophila Orc1 lacking the N-terminal 439 residues (Orc1ΔN), subunit of DmORC^Orc1ΔN (Drosophila, UniProt O16810 440-924); assay: as above; conditions: both partners purified
T2 construct: Orc1, Drosophila, without the N-terminal 439 amino acid residues; also called DmOrc1; source: Hi5 insect cells, co-expressed with the other ORC subunits, purified as part of DmORC^Orc1ΔN; not shown: 6xHis, N-terminal, cleaved
T2 sequence (looked up): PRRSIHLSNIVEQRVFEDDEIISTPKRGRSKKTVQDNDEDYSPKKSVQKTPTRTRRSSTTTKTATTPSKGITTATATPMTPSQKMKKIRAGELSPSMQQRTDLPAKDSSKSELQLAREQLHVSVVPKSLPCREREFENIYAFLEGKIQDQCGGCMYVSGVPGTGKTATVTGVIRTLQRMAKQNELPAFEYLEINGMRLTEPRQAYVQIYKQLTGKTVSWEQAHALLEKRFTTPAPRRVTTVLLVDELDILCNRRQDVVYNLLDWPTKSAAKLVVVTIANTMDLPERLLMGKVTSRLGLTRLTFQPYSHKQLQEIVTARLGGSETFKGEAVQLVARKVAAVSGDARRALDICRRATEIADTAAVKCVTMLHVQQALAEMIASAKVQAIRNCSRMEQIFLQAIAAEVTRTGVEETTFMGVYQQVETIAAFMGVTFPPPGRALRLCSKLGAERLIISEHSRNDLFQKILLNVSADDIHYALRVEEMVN

[3] = molecular target: T3, Drosophila Orc3, subunit of DmORC^Orc1ΔN (Drosophila, UniProt Q7K2L1 1-721); assay: as above; conditions: both partners purified
T3 construct: Orc3, Drosophila; only Orc1 is named as truncated in DmORC^Orc1ΔN; also called DmOrc3; source: Hi5 insect cells, co-expressed with the other ORC subunits, purified as part of DmORC^Orc1ΔN
T3 sequence: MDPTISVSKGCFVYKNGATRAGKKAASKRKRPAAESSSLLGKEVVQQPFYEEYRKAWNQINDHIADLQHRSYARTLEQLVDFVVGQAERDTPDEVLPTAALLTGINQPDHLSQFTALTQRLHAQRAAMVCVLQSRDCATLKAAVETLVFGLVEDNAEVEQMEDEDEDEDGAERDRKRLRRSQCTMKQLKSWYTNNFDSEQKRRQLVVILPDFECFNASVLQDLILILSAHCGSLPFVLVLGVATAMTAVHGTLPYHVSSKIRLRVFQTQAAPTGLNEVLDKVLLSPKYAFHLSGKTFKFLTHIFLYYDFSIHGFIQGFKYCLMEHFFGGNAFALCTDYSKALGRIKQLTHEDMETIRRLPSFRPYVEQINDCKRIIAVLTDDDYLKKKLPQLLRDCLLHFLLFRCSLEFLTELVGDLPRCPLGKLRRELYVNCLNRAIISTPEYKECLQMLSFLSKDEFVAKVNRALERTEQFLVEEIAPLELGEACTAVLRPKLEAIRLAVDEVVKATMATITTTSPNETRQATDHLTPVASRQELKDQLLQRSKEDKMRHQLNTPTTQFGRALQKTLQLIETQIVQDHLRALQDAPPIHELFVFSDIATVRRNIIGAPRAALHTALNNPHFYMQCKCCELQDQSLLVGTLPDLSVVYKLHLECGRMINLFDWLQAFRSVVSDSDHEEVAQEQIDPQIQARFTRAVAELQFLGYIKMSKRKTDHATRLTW

[4] = molecular target: T4, Drosophila origin recognition complex with N-terminally truncated Orc1 (DmORC^Orc1ΔN) (Drosophila, UniProt O16810 440-924; Q24168 1-618; Q7K2L1 1-721; Q9W102 1-459; Q24169 1-460; Q9Y1B2 …); assay: as above; conditions: both partners purified
T4 construct: Orc1, Drosophila, without the N-terminal 439 amino acid residues (Orc1ΔN); Orc2, Drosophila; only Orc1 is named as truncated in DmORC^Orc1ΔN; Orc3, Drosophila; Orc4, Drosophila; Orc5, Drosophila; Orc6, Drosophila; full-length DmOrc6 was used to reconstitute the binary and ternary complexes; Heterohexamer used for cryo-EM and for the pull-down with Cdc6ΔN; also called truncated DmORC; not shown: …

[5] = molecular target: T4, Drosophila origin recognition complex …; assay: pull-down; MBP-DmCdc6 or 6xHis-MBP-DmCdc6ΔN (200 nM) as bait on amylose beads; DmORC (100 nM) with 60 bp AT-rich dsDNA (100 nM); 25 mM HEPES-KOH pH 7.6, 300 mM potassium glutamate, 10 mM magnesium acetate, 10% glycerol, 1 mM DTT, 0 or 1 mM ATP; 25 °C; SDS-PAGE and silver staining; conditions: both partners purified
[6] = molecular target: DmORC Orc1deltaN;DmCdc6deltaN241 (Drosophila melanogaster;Drosophila …, UniProt O16810;Q24168;Q7K2L1;Q9W102;Q24169;Q9Y1B2;Q9VSM9 …, |del1-241); assay: cryo-EM; ATP, Mg2+; Anisotropy: 1 nM dsDNA, 25 mM HEPES-KOH pH 7.6, 300 mM K-glutamate, 10 mM Mg-acetate, 10% glycerol, 0.1% NP40, 1 mM DTT, 0.1 mg/mL BSA, 0 or 1 mM ATP, 25 C, 40; conditions: protein: recombinant;recombinant; tags: tags cleaved;6xHis-MBP cleaved by TEV; copies: 1;1;1;1;1;1;1; blunt
Chain of DmORC Orc1deltaN;DmCdc6deltaN241 (chain, as listed by the source |del1-241 | mutant, chain 4 of 3): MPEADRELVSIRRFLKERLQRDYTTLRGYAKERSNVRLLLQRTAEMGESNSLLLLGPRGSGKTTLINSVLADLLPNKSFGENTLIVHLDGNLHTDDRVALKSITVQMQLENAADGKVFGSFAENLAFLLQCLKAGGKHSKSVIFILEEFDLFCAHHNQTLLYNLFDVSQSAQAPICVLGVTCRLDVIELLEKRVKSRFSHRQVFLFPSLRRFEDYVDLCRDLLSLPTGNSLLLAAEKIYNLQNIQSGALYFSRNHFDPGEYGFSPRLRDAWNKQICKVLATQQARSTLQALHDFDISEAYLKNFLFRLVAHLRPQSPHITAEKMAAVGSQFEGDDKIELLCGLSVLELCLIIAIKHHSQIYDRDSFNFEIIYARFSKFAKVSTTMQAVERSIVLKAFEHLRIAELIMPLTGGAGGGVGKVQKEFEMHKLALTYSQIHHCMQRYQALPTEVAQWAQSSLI
Chain of DmORC Orc1deltaN;DmCdc6deltaN241 (Q24169 whole entry, stated change not applied, chain 5 of 3): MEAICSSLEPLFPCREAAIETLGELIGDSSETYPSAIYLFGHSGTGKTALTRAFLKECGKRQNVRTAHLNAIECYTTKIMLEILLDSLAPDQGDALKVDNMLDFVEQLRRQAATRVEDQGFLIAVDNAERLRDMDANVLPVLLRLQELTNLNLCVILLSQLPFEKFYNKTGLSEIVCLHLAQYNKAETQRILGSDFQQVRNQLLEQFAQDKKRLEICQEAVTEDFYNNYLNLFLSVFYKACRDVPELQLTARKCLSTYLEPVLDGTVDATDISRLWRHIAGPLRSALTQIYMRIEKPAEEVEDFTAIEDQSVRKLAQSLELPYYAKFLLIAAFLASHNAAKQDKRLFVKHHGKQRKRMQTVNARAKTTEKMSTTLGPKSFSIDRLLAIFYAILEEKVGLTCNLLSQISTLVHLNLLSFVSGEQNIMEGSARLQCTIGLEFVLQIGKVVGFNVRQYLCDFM
Chain of DmORC Orc1deltaN;DmCdc6deltaN241 (Q9Y1B2 whole entry, stated change not applied, chain 6 of 3): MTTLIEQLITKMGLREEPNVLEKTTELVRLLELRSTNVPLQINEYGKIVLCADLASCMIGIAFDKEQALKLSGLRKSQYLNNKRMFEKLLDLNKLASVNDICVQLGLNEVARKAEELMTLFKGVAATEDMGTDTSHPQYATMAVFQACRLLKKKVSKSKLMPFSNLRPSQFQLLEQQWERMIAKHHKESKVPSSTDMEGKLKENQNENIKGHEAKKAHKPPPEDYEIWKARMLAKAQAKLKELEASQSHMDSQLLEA

T4 sequence (chain, as listed by the source mutant, chain 4 of 3): as the sequence (chain, as listed by the source |del1-241 | mutant, chain 4 of 3) above
T4 sequence (Q24169 whole entry, stated change not applied, chain 5 of 3, the tested form may be a part): as the sequence (Q24169 whole entry, stated change not applied, chain 5 of 3) above
T4 sequence (Q9Y1B2 whole entry, stated change not applied, chain 6 of 3, the tested form may be a part): as the sequence (Q9Y1B2 whole entry, stated change not applied, chain 6 of 3) above

B3: 84 bp AT-rich (dsDNA)
DNA 1: TTTGTGCACTTGCCTGCAGGCCTTTTGAAAAGCAAGCATAAAAGATCTAAACATAAAATCTGTAAAATAACAAGATGTAAAGAT
DNA 2: ATCTTTACATCTTGTTATTTTACAGATTTTATGTTTAGATCTTTTATGCTTGCTTTTCAAAAGGCCTGCAGGCAAGTGCACAAA
binding result [6]: binds

B4: 60 bp GC-rich (70% GC) (dsDNA)
DNA 1: GGGGCTCGACTCCAAGTGCGGGGCACTCGTCTGTGAGGGGGCTCAGTTCGCACTGCGGGG
DNA 2: CCCCGCAGTGCGAACTGAGCCCCCTCACAGACGAGTGCCCCGCACTTGGAGTCGAGCCCC
binding result [6]: binds

Continued, values first:

binding result [1]: binds | binding result [2]: binds | binding result [3]: binds | binding result [4]: binds
B1: N-terminally truncated Drosophila Cdc6 (DmCdc6ΔN241), tags removed (domain or fragment, UniProt Q9VSM9 242-662, looked up)
chain: NNLPSPSRNKYQNARRVLNSAETQNLPGRESQLQELREFFSNHLESQTSGSLYVSGQPGTGKTACLSLLLRDPDFSKRLQRVYINCTSIASVGAVYKKLCTELQLKVSGRTERDHLEAIQRHLKTAKRMLLLVLDEIDQLCTSRQEVLYTIFEWPALPGSRILLVGIANSLDLTDRALMRLNARCELKPRLMHFPPYSKQQIVEIFKSRLAEAEVLDVFPPVTLQLLAAKVSAISGDVRRALDIGRRVVEIAEQQKRDGEKEFNMKALQLEGKDAVEAKEKQDTLKPVQVTQVAAVLNKVYGASQNLEEDIEASFPLQQKLMLCTLVLMLRNERNKDISMGRLHEVYRRVCAKRNILALDQAEFTGTVDLVETRGILRIMRKKEPRLHKVLLQWDEEEVHAALSDKQLIASILSDTACLSK
notes: Cdc6, Drosophila, ΔN241, amino acids 242-662; not shown: 6xHis, N-terminal, cleaved; MBP, N-terminal, cleaved

binding result [5]: binds
B2: 6xHis-MBP-tagged N-terminally truncated Drosophila Cdc6 (6xHis-MBP-DmCdc6ΔN241) (domain or fragment, UniProt Q9VSM9 242-662, looked up)
chain: NNLPSPSRNKYQNARRVLNSAETQNLPGRESQLQELREFFSNHLESQTSGSLYVSGQPGTGKTACLSLLLRDPDFSKRLQRVYINCTSIASVGAVYKKLCTELQLKVSGRTERDHLEAIQRHLKTAKRMLLLVLDEIDQLCTSRQEVLYTIFEWPALPGSRILLVGIANSLDLTDRALMRLNARCELKPRLMHFPPYSKQQIVEIFKSRLAEAEVLDVFPPVTLQLLAAKVSAISGDVRRALDIGRRVVEIAEQQKRDGEKEFNMKALQLEGKDAVEAKEKQDTLKPVQVTQVAAVLNKVYGASQNLEEDIEASFPLQQKLMLCTLVLMLRNERNKDISMGRLHEVYRRVCAKRNILALDQAEFTGTVDLVETRGILRIMRKKEPRLHKVLLQWDEEEVHAALSDKQLIASILSDTACLSK
notes: Cdc6, Drosophila, ΔN241, amino acids 242-662; also called 6xHis-MBP-tagged DmCdc6ΔN241; source: TEV cleavage omitted; not shown: 6xHis, N-terminal, kept; MBP, N-terminal, kept
